Data as given in article PMC2711901 (Nature structural & molecular biology, 2009).

Target: T1, GST-Ubc9 (S. pombe, UniProt P40984 1-157)
T1 sequence (looked up): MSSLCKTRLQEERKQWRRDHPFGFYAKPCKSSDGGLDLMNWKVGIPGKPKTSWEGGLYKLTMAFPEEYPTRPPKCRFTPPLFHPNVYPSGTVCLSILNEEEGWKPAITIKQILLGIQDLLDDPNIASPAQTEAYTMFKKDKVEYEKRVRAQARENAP
Assay: pull-down

B1: 6His-Rad60 SLD2 (domain or fragment, S. pombe, UniProt Q9USX3 332-406, looked up)
chain: KLITLLLRSSKSEDLRLSIPVDFTVKDLIKRYCTEVKISFHERIRLEFEGEWLDPNDQVQSTELEDEDQVSVVLD
Q: Does B1 bind?
A: binds
